Assay results as given in US8106168B2, “Metalloproteinase binding proteins” (Dyax Corp., priority 2005, dated 2012).

Assays:
[1] = target: T1, MMP-16 (Homo sapiens, UniProt P51512); assay: Cross-reactivity of anti-MMP-14 IgGs, enzymatic activity: MMP-16; format: biochemical; settings: 1 μM anti-MMP-14 IgG
Method: The cross-reactivity of exemplary anti-MMP-14 IgGs and Fabs with other human MMPs and TACE (TNF-alpha converting enzyme) was examined. MMP and TACE enzymatic activity was monitored in the absence and presence of 1 μM anti-MMP-14 IgG antibody. Inhibition (Y) of activity ranged from approximately 50-80% of the reaction rate observed in the absence of antibody. “X” indicates no inhibition was observed. Cross-reactivity was not determined for MMP-17 because protein activity could not be detected.
For the studies summarized in Table 12, six anti-MMP-14 IgGs were selected for cross-reactivity testings: M0043-G02, M0040-A06, M0037-D01, M037-C09, M0038-F01, M0033-H07.

[2] = target: T1, MMP-16; assay: Cross-reactivity of Fabs and IgGs with MMP-16 (Example 8); format: biochemical; design: key to MMP-16 (cross-reactivity, class symbol): X: Does not inhibit MMP-16 at [I] = 100 nM level; settings: 5 nM MMP16, 30 minutes at 30° C., 10 μM substrate
Method: For the studies summarized in Tables 13 and 14, 100 nM anti-MMP-14 Fab/IgG were incubated with 5 nM MMP16 for 30 minutes at 30° C., 10 μM of substrate was added, and the MMP-16 activity was measured.

[3] = target: MMP-24 (Homo sapiens, UniProt Q9Y5R2); assay: Cross-reactivity of Fabs with MMP-24 (Example 9); format: biochemical; design: key to MMP-24 (cross-reactivity, class symbol): X: Do not inhibit MMP-16 or MMP-24 at [I] = 100 nM level; Y: partially inhibit at [I] = 100 nM level; settings: Fab, 100 nM final inhibitor concentration; 5 nM MMP-24
Chain of MMP-24 (Q9Y5R2 156-645): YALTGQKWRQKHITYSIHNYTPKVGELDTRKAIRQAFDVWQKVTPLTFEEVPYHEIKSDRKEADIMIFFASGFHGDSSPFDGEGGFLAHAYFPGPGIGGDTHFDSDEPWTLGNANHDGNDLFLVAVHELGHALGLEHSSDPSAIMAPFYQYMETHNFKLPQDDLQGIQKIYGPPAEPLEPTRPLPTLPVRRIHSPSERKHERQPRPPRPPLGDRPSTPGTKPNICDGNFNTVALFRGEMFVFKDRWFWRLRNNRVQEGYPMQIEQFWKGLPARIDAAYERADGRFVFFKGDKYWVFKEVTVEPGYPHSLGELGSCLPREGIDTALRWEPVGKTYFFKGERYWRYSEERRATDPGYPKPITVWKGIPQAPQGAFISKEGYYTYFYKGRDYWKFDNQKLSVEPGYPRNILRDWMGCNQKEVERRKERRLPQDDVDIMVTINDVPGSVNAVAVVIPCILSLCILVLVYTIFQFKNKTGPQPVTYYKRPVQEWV
Method: (§1) For the studies summarized in Table 15, 1 μM of anti-MMP-14 Fab/IgG (100 nM final inhibitor concentration) were incubated with 5 nM of MMP-16 or 5 nM of MMP-24 for 30 minutes at 30° C., 10 μM of substrate was added, and the MMP-16 activity was measured.

[4] = target: T2, MMP-14 (Homo sapiens, UniProt P50281); assay: Selection and phage ELISA screening of anti-MMP-14 Fabs; format: binding; settings: Fab from FAB310 phage display library
Summary of the method: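 The FAB310 phage library was panned on biotinylated MMP-14, alone or complexed with bead-bound TIMP-2, at 500 nM and then 100 nM over three rounds. Phage was eluted with 2.5 μM TIMP-2, then 100 mM TEA. For ELISA, 95 clones per round were screened against 1 μg/ml biotinylated MMP-14 captured on streptavidin in TRIS/5 mM CaCl2, pH 7.5.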

[5] = target: T2, MMP-14; assay: IC50 for MMP-14 inhibition by Fabs and IgGs; format: biochemical; settings: Fab
Summary of the method: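 Cleavage of the fluorogenic substrate Mca-Pro-Leu-Ala-Cys(Mob)-Trp-Ala-Arg-Dap(Dnp)-NH2 was measured without and with increasing Fab or IgG concentrations. IC50 is the binding-protein concentration that inhibits 50% of MMP-14 activity.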

[6] = target: T1, MMP-16; assay: Cross-reactivity of Fabs with MMP-16 (Example 9); format: biochemical; design: key: X: Do not inhibit MMP-16 or MMP-24 at [I] = 100 nM level; Y: partially inhibit at [I] = 100 nM level; settings: Fab, 100 nM final inhibitor concentration, 5 nM MMP-16
Method: as §1

T1 sequence (P51512 120-607): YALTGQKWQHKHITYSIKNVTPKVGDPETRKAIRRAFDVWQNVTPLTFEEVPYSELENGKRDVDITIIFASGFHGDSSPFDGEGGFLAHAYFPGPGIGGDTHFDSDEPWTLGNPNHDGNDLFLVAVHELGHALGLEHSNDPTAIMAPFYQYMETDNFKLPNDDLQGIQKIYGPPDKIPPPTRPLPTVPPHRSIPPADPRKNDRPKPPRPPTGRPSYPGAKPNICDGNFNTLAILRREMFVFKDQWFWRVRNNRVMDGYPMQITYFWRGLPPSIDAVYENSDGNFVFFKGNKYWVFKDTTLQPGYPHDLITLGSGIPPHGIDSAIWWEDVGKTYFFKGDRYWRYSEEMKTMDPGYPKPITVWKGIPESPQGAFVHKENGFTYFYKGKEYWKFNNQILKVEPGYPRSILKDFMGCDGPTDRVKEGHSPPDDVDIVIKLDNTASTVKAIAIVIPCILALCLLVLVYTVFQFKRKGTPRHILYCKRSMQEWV

| Molecule | Cross reactivity: inhibition of MMP-16 activity [1] | MMP-16 inhibition ([2]; Fab 100 nM) | MMP-16 inhibition ([2]; IgG 100 nM) | MMP-24 inhibition [3] | bind to human MMP-14 [4] | bind to and inhibit human MMP-14 [5] | MMP-16 (cross-reactivity, class symbol) [6] | MMP-16 (cross-reactivity, class symbol) ([2]; Fab 100 nM) | MMP-16 (cross-reactivity, class symbol) ([2]; IgG 100 nM) | MMP-24 (cross-reactivity, class symbol) [3] |
| --- | --- | --- | --- | --- | --- | --- | --- | --- | --- | --- |
| M0043-G02: human antibody (Fab, IgG) that binds and inhibits MMP-14; HC SEQ ID NO: 166, LC SEQ ID NO: 167 (antibody, V domains shown, Synthetically generated peptide) VH: EVQLLESGGGLVQPGGSLRLSCAASGFTFSWYPMFWVRQAPGKGLEWVSGIYSSGGPTDYADSVKGRFTISRDNSKNTLYLQMNSLRAEDTAVYYCAKDTLGRYYDFWSGYSYGMDVWGQGTTVTVSS VL: QDIQMTQSPGTLSLSPGERATLSCRASQSVSSSYLAWYQQKPGQAPRLLIYGASSRATGIPDRFSGSGSGTDFTLTISRLEPEDFAVYYCQSGVTFGGGTKVEIK | Y (Inhibition (Y) of activity ranged from approximately 50-80% of the reaction rate observed in the absence of antibody) | Y 70% inhibition | Y 94% inhibition | Y 74% inhibition | bind to human MMP-14 | bind to and inhibit human MMP-14 | X | – | – | – |
| M0038-F01: human antibody (Fab, IgG) that binds and inhibits MMP-14; HC SEQ ID NO: 156, LC SEQ ID NO: 157 (antibody, V domains shown, Synthetically generated peptide) VH: EVQLLESGGGLVQPGGSLRLSCAASGFTFSLYSMNWVRQAPGKGLEWVSSIYSSGGSTLYADSVKGRFTISRDNSKNTLYLQMNSLRAEDTAVYYCARGRAFDIWGQGTMVTVSS VL: QDIQMTQSPSSLSAFVGDKVTITCRASQSVGTYLNWYQQKAGKAPELLIYATSNLRSGVPSRFSGSGSGTDFTLTINTLQPEDFATYYCQQSYSIPRFTFGPGTKVDIK | Y (Inhibition (Y) of activity ranged from approximately 50-80% of the reaction rate observed in the absence of antibody) | – | – | – | bind to human MMP-14 | bind to and inhibit human MMP-14 | X | X | X | X |
| M0040-A06: human antibody (Fab, IgG) that binds and inhibits MMP-14; HC SEQ ID NO: 162, LC SEQ ID NO: 163 (antibody, V domains shown, Synthetically generated peptide) VH: EVQLLESGGGLVQPGGSLRLSCAASGFTFSYYGMYWVRQAPGKGLEWVSSISSSGGYTDYADSVKGRFTISRDNSKNTLYLQMNSLRAEDTAVYYCARRIKYYDIEGEGAFDIWGQGTMVTVSS VL: QDIVMTQTPPSLPVNPGEPASISCRSSQSLLHRNGYNYLDWYLQKPGQSPQLLIHLGSYRASGVPDRFSGSGSGTDFTLKISRVEAEDVGVYYCMQPLQTPFTFGPGTKVDIK | Y (Inhibition (Y) of activity ranged from approximately 50-80% of the reaction rate observed in the absence of antibody) | – | – | Y 65% inhibition | bind to human MMP-14 | bind to and inhibit human MMP-14 | X | X | X | – |
